Source: US20120009181A1, “Folate Receptor 1 Antibodies and Immunoconjugates and Uses Thereof” (published 2012)

Legend:
[1] = biological target: human folate receptor 1 (FOLR1) (human); assay: column head 'Apparent affinity (nM)'; method not restated (analyzed as described above: flow cytometry on FOLR1-expressing cells)
[2] = biological target: human folate receptor 1 (FOLR1) (human); assay: cell-based or functional assay
[3] = biological target: human folate receptor 1 (FOLR1) (human); assay: cell-based or functional assay; remark: listed apart in the source
[4] = biological target: human folate receptor 1 (FOLR1) (human); assay: cell-based or functional assay; remark: listed apart in the source

human folate receptor 1 (FOLR1) (human), sequence (chain, as listed by the source limits assumed): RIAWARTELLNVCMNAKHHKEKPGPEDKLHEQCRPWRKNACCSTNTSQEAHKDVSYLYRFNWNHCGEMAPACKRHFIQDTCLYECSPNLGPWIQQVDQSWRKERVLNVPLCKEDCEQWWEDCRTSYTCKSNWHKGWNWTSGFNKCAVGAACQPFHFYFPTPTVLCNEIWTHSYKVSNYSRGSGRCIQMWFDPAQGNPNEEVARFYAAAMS

Row | Binder | Kd [1] [nM] | huAb-smcc-DM1 activity on KB in vitro [2] [nM] | further results
1 | huFR1-65 (antibody, V domains shown) VH: QVQLVQSGAEVAKPGASVKMSCKASGYTFTSYTMHWVKQRPGQGLAWIGYINPISGYTNYNQKFQGKATLTADKSSSTAYMQLNSLTSEDSAVYYCASGGAYGRKPMDYWGQGTSVTVSS VL: EIVMTQSPATMSTSPGDRVSVTCKASQNVGPNVAWYQQKPGQSPRALIYSASYRYSGVPARFTGSGSGTDFTLTISNMQSEDLAEYFCQQYNSYPYTFGQGTKLEIKR | 0.15 |  | 
2 | huFR1-21 (antibody, V domains shown) VH: EVQLVESGGDVVKPGGSLKLSCAASGFTFSSYGMSWVRQTPGKGLECVATISSGGSYTYYSPGFQGRFTISRDKSKNTLYLQMSSLKAEDTAMYYCARDGEGGLYAMDYWGQGTSVTVSS VL: DIQMTQSSSSLSVSVGGRVTITCKASDHINNWLAWYQQKPGKAPKLLISGATSLETGVPSRFSGSGSGKDYTLSISSLQPEDVATYYCQQYWSTPFTFGQGTKLEIKR |  |  | EC50 of ADCC activity on IGROV-1 cells [3]: 0.11 ng/mL
3 | huFR1-48 (antibody, V domains shown) VH: QVQLVQSGAEVAKPGASVKLSCKASGYTFTNYWMQWIKQRPGQGLEWIGAIYPGNGDSRYTQKFQGKATLTADKSSSTAYMQVSSLTSEDSAVYYCARRDGNYAAYWGQGTLVTVSA VL: DIQMTQSPSSLSVSVGERVTITCRASENIYSNLAWYQQKPGKSPKLLVYAATNLADGVPSRFSGSESGTDYSLKINSLQPEDFGSYYCQHFWASPYTFGQGTKLEIKR | 0.13 |  | 
4 | huFR1-48-SMCC-DM1 (antibody, V domains shown, maytansinoid DM1 linked to the antibody through the SMCC linker; drug load and attachment residues not stated) VH: QVQLVQSGAEVAKPGASVKLSCKASGYTFTNYWMQWIKQRPGQGLEWIGAIYPGNGDSRYTQKFQGKATLTADKSSSTAYMQVSSLTSEDSAVYYCARRDGNYAAYWGQGTLVTVSA VL: DIQMTQSPSSLSVSVGERVTITCRASENIYSNLAWYQQKPGKSPKLLVYAATNLADGVPSRFSGSESGTDYSLKINSLQPEDFGSYYCQHFWASPYTFGQGTKLEIKR |  | 0.05 | 
5 | huMov19-SPP-DM1 (antibody, V domains shown, maytansinoid DM1 linked to the antibody through the SPP linker, 3.5-4 DM1 per antibody; attachment residues not stated) VH: QVQLVQSGAEVVKPGASVKISCKASGYTFTGYFMNWVKQSPGQSLEWIGRIHPYDGDTFYNQKFQGKATLTVDKSSNTAHMELLSLTSEDFAVYYCTRYDGSRAMDYWGQGTTVTVSS VL: DIVLTQSPLSLAVSLGQPAIISCKASQSVSFAGTSLMHWYHQKPGQQPRLLIYRASNLEAGVPDRFSGSGSKTDFTLTISPVEAEDAATYYCQQSREYPYTFGGGTKLEIKR |  |  | IC50, nM (n = 3), Ab-based; in vitro cytotoxicity on IGROV-1 cells [4]: 0.1 nM; IC50, nM (n = 3), Ab-based; in vitro cytotoxicity on JEG-3 cells [4]: 0.2 nM; IC50, nM (n = 3), Ab-based; in vitro cytotoxicity on KB cells [4]: 0.1 nM

Now from value to binder, other results behind:

Row | Kd [1] [nM] | huAb-smcc-DM1 activity on KB in vitro [2] [nM] | Binder | further results
6 |  | 0.1 | huFR1-65-SMCC-DM1 (antibody, V domains shown, maytansinoid DM1 linked to the antibody through the SMCC linker; drug load and attachment residues not stated) VH: QVQLVQSGAEVAKPGASVKMSCKASGYTFTSYTMHWVKQRPGQGLAWIGYINPISGYTNYNQKFQGKATLTADKSSSTAYMQLNSLTSEDSAVYYCASGGAYGRKPMDYWGQGTSVTVSS VL: EIVMTQSPATMSTSPGDRVSVTCKASQNVGPNVAWYQQKPGQSPRALIYSASYRYSGVPARFTGSGSGTDFTLTISNMQSEDLAEYFCQQYNSYPYTFGQGTKLEIKR | 
7 | 0.14 |  | huFR1-57 (antibody, V domains shown) VH: EVQLVESGGGLVQPGGSRRLSCAASGFTFSSFGMHWVRQAPGKGLEWVAYISSGSSTISYADSVKGRFTISRDNSKKTLLLQMTSLRAEDTAMYYCAREAYGSSMEYWGQGTLVTVSS VL: EIVLTQSPATLSVTPGDRVSLSCRASQNINNNLHWYQQKPGQSPRLLIKYVSQSVSGIPDRFSGSGSGTDFTLSISSVEPEDFGMYFCQQSNSWPHYTFGQGTKLEIKR | 
8 |  | 0.1 | huFR1-57-SMCC-DM1 (antibody, V domains shown, maytansinoid DM1 linked to the antibody through the SMCC linker; drug load and attachment residues not stated) VH: EVQLVESGGGLVQPGGSRRLSCAASGFTFSSFGMHWVRQAPGKGLEWVAYISSGSSTISYADSVKGRFTISRDNSKKTLLLQMTSLRAEDTAMYYCAREAYGSSMEYWGQGTLVTVSS VL: EIVLTQSPATLSVTPGDRVSLSCRASQNINNNLHWYQQKPGQSPRLLIKYVSQSVSGIPDRFSGSGSGTDFTLSISSVEPEDFGMYFCQQSNSWPHYTFGQGTKLEIKR | 
9 | 0.08 |  | huFR1-49 (antibody, V domains shown) VH: QVQLQQSGAVVAKPGASVKMSCKASGYTFTNYWMYWIKQRPGQGLELIGAIYPGNSDTTYNQKFQGKATLTAVTSANTVYMEVSSLTSEDSAVYYCTKRHDYGAMDYWGQGTSVTVSS VL: DIQMTQSPSSLSVSVGERVTITCRASENIYTNLAWYQQKPGKSPKLLVYTASNLADGVPSRFSGSGSGTDYSLKINSLQPEDFGTYYCQHFWVSPYTFGQGTKLEIKR | 
10 |  | 0.1 | huFR1-49-SMCC-DM1 (antibody, V domains shown, maytansinoid DM1 linked to the antibody through the SMCC linker; drug load and attachment residues not stated) VH: QVQLQQSGAVVAKPGASVKMSCKASGYTFTNYWMYWIKQRPGQGLELIGAIYPGNSDTTYNQKFQGKATLTAVTSANTVYMEVSSLTSEDSAVYYCTKRHDYGAMDYWGQGTSVTVSS VL: DIQMTQSPSSLSVSVGERVTITCRASENIYTNLAWYQQKPGKSPKLLVYTASNLADGVPSRFSGSGSGTDYSLKINSLQPEDFGTYYCQHFWVSPYTFGQGTKLEIKR | 
11 | 0.06 |  | huMov19 (antibody, V domains shown) VH: QVQLVQSGAEVVKPGASVKISCKASGYTFTGYFMNWVKQSPGQSLEWIGRIHPYDGDTFYNQKFQGKATLTVDKSSNTAHMELLSLTSEDFAVYYCTRYDGSRAMDYWGQGTTVTVSS VL: DIVLTQSPLSLAVSLGQPAIISCKASQSVSFAGTSLMHWYHQKPGQQPRLLIYRASNLEAGVPDRFSGSGSKTDFTLNISPVEAEDAATYYCQQSREYPYTFGGGTKLEIKR | 
